Results on 1 molecule are retold here after patent US20150038427A1 (SYMIC BIOMEDICAL, published 2015).

For assay [1], the target named is T1, collagen.
T1 construct: also called collagen-treated well; collagen surface
Briefly: fluorescence plate binding assay, dansyl peptide on collagen-coated wells, curve fitted to the data of FIG. 3. How it is done: (§1) Binding assays were done in a 96-well high-binding plate, black with a clear bottom (Costar). Collagen was compared to untreated wells and BSA coated wells. Collagen and BSA were immobilized at 37° C. for 1 hr by incubating 90 μL/well at concentrations of 2 mg/mL in 10 mM HCl and 1× PBS, respectively. Each well was washed 3× with 1× PBS after incubating. Z-SILY was dissolved in 1× PBS at concentrations from 100 μM to 10 nM in 10-fold dilutions. Wells were incubated for 30 min at 37° C. and rinsed 3× with PBS and then filled with 90 μL of 1× PBS. Fluorescence readings were taken on an M5 Spectramax Spectrophotometer (Molecular Devices) at excitation/emission wavelengths of 335 nm/490 nm respectively.

For assay [2], the target named is T1, collagen. Briefly: fluorescence plate binding assay, dansyl peptide on collagen-coated 96-well plate, equilibrium. The procedure:
as §1

Ends that are not written are not given here. * marks the point of attachment. Dansyl = CN(C)c1cccc2c(S(=O)(=O)*)cccc12

B1: Dansyl-GRRANAALKAGELYKSILYGC (peptide)
peptide: Dansyl-GRRANAALKAGELYKSILYGC
notes: Fluorescently labelled version of SILY, tested as free peptide; also called ZSILY; Z-SILY
As to B1, the “EC50 (read off the curve)” value with collagen [1] is about 900 nM. Besides, the Kd with collagen [2] came to 860 nM.

As usually defined, the EC50 (read off the curve) is the midpoint of the concentration-response curve. Higher therefore signals lower potency in that assay. The term Kd denotes the concentration at which binding is half-saturated. Low values mean higher affinity, high ones lower affinity.
